Here are results for twelve molecules from patent US20230406885A1, “CYCLIC PEPTIDES FOR TRAPPING INTERLEUKIN-1 BETA” (MERCK SHARP & DOHME LLC, priority 2022, published 2023).

*1 amine or outer side, *2 acyl side, *3 side chain or, on linkers, in order; H or OH if unused. [ ]: non-standard residue; d: D form. 3AzaPhe4AcPip = (S)-3-(6-(4-acetylpiperazin-1-yl)pyridin-3-yl)-2-aminopropanoic acid, CC(=O)N1CCN(c2ccc(C[C@H](N[*:1])C(=O)[*:2])cn2)CC1; Trp(4-Cl)(βS-Me) = C[C@@H](c1c[nH]c2cccc(Cl)c12)[C@H](N)C(=O)O; Pro(trans-4-NH2) = O=C([C@@H]1C[C@@H](N[*:3])CN1[*:1])[*:2]; Bip(4'-COOH) = N[C@@H](Cc1ccc(-c2ccc(C(=O)O)cc2)cc1)C(=O)O; 1Nal(3S-Me) = C[C@@H](c1cccc2ccccc12)[C@H](N)C(=O)O; Ala(pyrimidin-5-yl) = N[C@@H](Cc1cncnc1)C(=O)O; Phe(4-COOH) = N[C@@H](Cc1ccc(C(=O)O)cc1)C(=O)O; Trp(7-aza) = N[C@@H](Cc1c[nH]c2ncccc12)C(=O)O; h3Pal(5-CN) = N#Cc1cncc(CC[C@H](N)C(=O)O)c1; 1Nal = N[C@@H](Cc1cccc2ccccc12)C(=O)O; hTyr = N[C@@H](CCc1ccc(O)cc1)C(=O)O; dDab = NCC[C@@H](N)C(=O)O; Orn = NCCC[C@H](N)C(=O)O; dNMeA = CN[C@H](C)C(=O)O; Dap = NC[C@H](N)C(=O)O; Aib = CC(C)(N)C(=O)O

For the experiment, the target named is Recombinant human IL-1β (BioLegend 579404) (human, UniProt P01584 117-269). Nature of the experiment: cell-based or functional assay.

B1: SEQ ID NO: 32 (peptide)
peptide: cyclo([Bip(4'-COOH)]W[Phe(4-COOH)]G[Pro(trans-4-NH2)][1Nal(3S-Me)]D[dNMeA]G[Bip(4'-COOH)]WG[dDab][hTyr])
SMILES: C[C@@H]1C(=O)NCC(=O)N[C@@H](Cc2ccc(-c3ccc(C(=O)O)cc3)cc2)C(=O)N[C@@H](Cc2c[nH]c3ccccc23)C(=O)NCC(=O)N[C@H](CCN)C(=O)N[C@@H](CCc2ccc(O)cc2)C(=O)N[C@@H](Cc2ccc(-c3ccc(C(=O)O)cc3)cc2)C(=O)N[C@@H](Cc2c[nH]c3ccccc23)C(=O)N[C@@H](Cc2ccc(C(=O)O)cc2)C(=O)NCC(=O)N2C[C@H](N)C[C@H]2C(=O)N[C@@H]([C@@H](C)c2cccc3ccccc23)C(=O)N[C@@H](CC(=O)O)C(=O)N1C
For the molecule B1, the “MRC5 IC50” value came to 0.033 nM.

B2: SEQ ID NO: 36 (peptide)
peptide: cyclo([Bip(4'-COOH)]W[Phe(4-COOH)]G[Pro(trans-4-NH2)][Trp(4-Cl)(βS-Me)]D[dNMeA]G[Bip(4'-COOH)][1Nal]L[Aib][hTyr])
SMILES: CC(C)C[C@@H]1NC(=O)[C@H](Cc2cccc3ccccc23)NC(=O)[C@H](Cc2ccc(-c3ccc(C(=O)O)cc3)cc2)NC(=O)CNC(=O)[C@@H](C)N(C)C(=O)[C@H](CC(=O)O)NC(=O)[C@H]([C@@H](C)c2c[nH]c3cccc(Cl)c23)NC(=O)[C@@H]2C[C@@H](N)CN2C(=O)CNC(=O)[C@H](Cc2ccc(C(=O)O)cc2)NC(=O)[C@H](Cc2c[nH]c3ccccc23)NC(=O)[C@H](Cc2ccc(-c3ccc(C(=O)O)cc3)cc2)NC(=O)[C@H](CCc2ccc(O)cc2)NC(=O)C(C)(C)NC1=O
In the case of B2, the “MRC5 IC50” value is 0.0522 nM.

B3: SEQ ID NO: 3 (peptide)
peptide: cyclo([3AzaPhe4AcPip]W[Phe(4-COOH)]G[Pro(trans-4-NH2)][1Nal(3S-Me)]D[dNMeA]G[Bip(4'-COOH)]KL[dA][hTyr])
SMILES: CC(=O)N1CCN(c2ccc(C[C@@H]3NC(=O)[C@H](CCc4ccc(O)cc4)NC(=O)[C@@H](C)NC(=O)[C@H](CC(C)C)NC(=O)[C@H](CCCCN)NC(=O)[C@H](Cc4ccc(-c5ccc(C(=O)O)cc5)cc4)NC(=O)CNC(=O)[C@@H](C)N(C)C(=O)[C@H](CC(=O)O)NC(=O)[C@H]([C@@H](C)c4cccc5ccccc45)NC(=O)[C@@H]4C[C@@H](N)CN4C(=O)CNC(=O)[C@H](Cc4ccc(C(=O)O)cc4)NC(=O)[C@H](Cc4c[nH]c5ccccc45)NC3=O)cn2)CC1
Turning to B3, the “MRC5 IC50” value stood at 0.0599 nM.

B4: SEQ ID NO: 30 (peptide)
peptide: cyclo([Bip(4'-COOH)]W[Phe(4-COOH)]G[Pro(trans-4-NH2)][1Nal(3S-Me)]D[dNMeA]G[Bip(4'-COOH)]W[Dap][dA][h3Pal(5-CN)])
SMILES: C[C@@H]1C(=O)NCC(=O)N[C@@H](Cc2ccc(-c3ccc(C(=O)O)cc3)cc2)C(=O)N[C@@H](Cc2c[nH]c3ccccc23)C(=O)N[C@@H](CN)C(=O)N[C@H](C)C(=O)N[C@@H](CCc2cncc(C#N)c2)C(=O)N[C@@H](Cc2ccc(-c3ccc(C(=O)O)cc3)cc2)C(=O)N[C@@H](Cc2c[nH]c3ccccc23)C(=O)N[C@@H](Cc2ccc(C(=O)O)cc2)C(=O)NCC(=O)N2C[C@H](N)C[C@H]2C(=O)N[C@@H]([C@@H](C)c2cccc3ccccc23)C(=O)N[C@@H](CC(=O)O)C(=O)N1C
Take B4: the “MRC5 IC50” value was found to be 0.0185 nM.

B5: SEQ ID NO: 37 (peptide)
peptide: cyclo([Bip(4'-COOH)]W[Phe(4-COOH)]G[Pro(trans-4-NH2)][Trp(4-Cl)(βS-Me)]D[dNMeA]G[Bip(4'-COOH)][1Nal][Orn][Aib]G)
SMILES: C[C@@H]1C(=O)NCC(=O)N[C@@H](Cc2ccc(-c3ccc(C(=O)O)cc3)cc2)C(=O)N[C@@H](Cc2cccc3ccccc23)C(=O)N[C@@H](CCCN)C(=O)NC(C)(C)C(=O)NCC(=O)N[C@@H](Cc2ccc(-c3ccc(C(=O)O)cc3)cc2)C(=O)N[C@@H](Cc2c[nH]c3ccccc23)C(=O)N[C@@H](Cc2ccc(C(=O)O)cc2)C(=O)NCC(=O)N2C[C@H](N)C[C@H]2C(=O)N[C@@H]([C@@H](C)c2c[nH]c3cccc(Cl)c23)C(=O)N[C@@H](CC(=O)O)C(=O)N1C
As for B5, the “MRC5 IC50” value came out at 0.103 nM.

B6: SEQ ID NO: 33 (peptide)
peptide: cyclo([Bip(4'-COOH)]W[Phe(4-COOH)]G[Pro(trans-4-NH2)][Trp(4-Cl)(βS-Me)]A[dNMeA]G[Bip(4'-COOH)][1Nal]L[Aib]G)
SMILES: CC(C)C[C@@H]1NC(=O)[C@H](Cc2cccc3ccccc23)NC(=O)[C@H](Cc2ccc(-c3ccc(C(=O)O)cc3)cc2)NC(=O)CNC(=O)[C@@H](C)N(C)C(=O)[C@H](C)NC(=O)[C@H]([C@@H](C)c2c[nH]c3cccc(Cl)c23)NC(=O)[C@@H]2C[C@@H](N)CN2C(=O)CNC(=O)[C@H](Cc2ccc(C(=O)O)cc2)NC(=O)[C@H](Cc2c[nH]c3ccccc23)NC(=O)[C@H](Cc2ccc(-c3ccc(C(=O)O)cc3)cc2)NC(=O)CNC(=O)C(C)(C)NC1=O
Turning to B6, the “MRC5 IC50” value was 0.544 nM.

B7: SEQ ID NO: 29 (peptide)
peptide: cyclo([Bip(4'-COOH)]W[Phe(4-COOH)]G[Pro(trans-4-NH2)][1Nal(3S-Me)]D[dNMeA]G[Bip(4'-COOH)][Trp(7-aza)][Dap][dA][hTyr])
SMILES: C[C@@H]1C(=O)NCC(=O)N[C@@H](Cc2ccc(-c3ccc(C(=O)O)cc3)cc2)C(=O)N[C@@H](Cc2c[nH]c3ncccc23)C(=O)N[C@@H](CN)C(=O)N[C@H](C)C(=O)N[C@@H](CCc2ccc(O)cc2)C(=O)N[C@@H](Cc2ccc(-c3ccc(C(=O)O)cc3)cc2)C(=O)N[C@@H](Cc2c[nH]c3ccccc23)C(=O)N[C@@H](Cc2ccc(C(=O)O)cc2)C(=O)NCC(=O)N2C[C@H](N)C[C@H]2C(=O)N[C@@H]([C@@H](C)c2cccc3ccccc23)C(=O)N[C@@H](CC(=O)O)C(=O)N1C
In the case of B7, the “MRC5 IC50” value is 0.0205 nM.

B8: SEQ ID NO: 31 (peptide)
peptide: cyclo([Bip(4'-COOH)]W[Phe(4-COOH)]G[Pro(trans-4-NH2)][1Nal(3S-Me)]D[dNMeA]G[Bip(4'-COOH)]W[Dap][dA][hTyr])
SMILES: C[C@@H]1C(=O)NCC(=O)N[C@@H](Cc2ccc(-c3ccc(C(=O)O)cc3)cc2)C(=O)N[C@@H](Cc2c[nH]c3ccccc23)C(=O)N[C@@H](CN)C(=O)N[C@H](C)C(=O)N[C@@H](CCc2ccc(O)cc2)C(=O)N[C@@H](Cc2ccc(-c3ccc(C(=O)O)cc3)cc2)C(=O)N[C@@H](Cc2c[nH]c3ccccc23)C(=O)N[C@@H](Cc2ccc(C(=O)O)cc2)C(=O)NCC(=O)N2C[C@H](N)C[C@H]2C(=O)N[C@@H]([C@@H](C)c2cccc3ccccc23)C(=O)N[C@@H](CC(=O)O)C(=O)N1C
Turning to B8, the “MRC5 IC50” value is 0.0208 nM.

B9: SEQ ID NO: 28 (peptide)
peptide: cyclo([Bip(4'-COOH)]W[Phe(4-COOH)]G[Pro(trans-4-NH2)][1Nal(3S-Me)]D[dNMeA]G[Bip(4'-COOH)][Ala(pyrimidin-5-yl)][Dap][dA][hTyr])
SMILES: C[C@@H]1C(=O)NCC(=O)N[C@@H](Cc2ccc(-c3ccc(C(=O)O)cc3)cc2)C(=O)N[C@@H](Cc2cncnc2)C(=O)N[C@@H](CN)C(=O)N[C@H](C)C(=O)N[C@@H](CCc2ccc(O)cc2)C(=O)N[C@@H](Cc2ccc(-c3ccc(C(=O)O)cc3)cc2)C(=O)N[C@@H](Cc2c[nH]c3ccccc23)C(=O)N[C@@H](Cc2ccc(C(=O)O)cc2)C(=O)NCC(=O)N2C[C@H](N)C[C@H]2C(=O)N[C@@H]([C@@H](C)c2cccc3ccccc23)C(=O)N[C@@H](CC(=O)O)C(=O)N1C
On to B9, for which the “MRC5 IC50” value is 0.0393 nM.

B10: SEQ ID NO: 34 (peptide)
peptide: cyclo([Bip(4'-COOH)]W[Phe(4-COOH)]G[Pro(trans-4-NH2)][Trp(4-Cl)(βS-Me)]D[dNMeA]G[Bip(4'-COOH)][1Nal][Dap][Aib][h3Pal(5-CN)])
SMILES: C[C@@H]1C(=O)NCC(=O)N[C@@H](Cc2ccc(-c3ccc(C(=O)O)cc3)cc2)C(=O)N[C@@H](Cc2cccc3ccccc23)C(=O)N[C@@H](CN)C(=O)NC(C)(C)C(=O)N[C@@H](CCc2cncc(C#N)c2)C(=O)N[C@@H](Cc2ccc(-c3ccc(C(=O)O)cc3)cc2)C(=O)N[C@@H](Cc2c[nH]c3ccccc23)C(=O)N[C@@H](Cc2ccc(C(=O)O)cc2)C(=O)NCC(=O)N2C[C@H](N)C[C@H]2C(=O)N[C@@H]([C@@H](C)c2c[nH]c3cccc(Cl)c23)C(=O)N[C@@H](CC(=O)O)C(=O)N1C
As to B10, the “MRC5 IC50” value is 0.0755 nM.

B11: SEQ ID NO: 27 (peptide)
peptide: cyclo([Bip(4'-COOH)]W[Phe(4-COOH)]G[Pro(trans-4-NH2)][1Nal(3S-Me)]D[dNMeA]G[Bip(4'-COOH)][Ala(pyrimidin-5-yl)][Dap][dA][h3Pal(5-CN)])
SMILES: C[C@@H]1C(=O)NCC(=O)N[C@@H](Cc2ccc(-c3ccc(C(=O)O)cc3)cc2)C(=O)N[C@@H](Cc2cncnc2)C(=O)N[C@@H](CN)C(=O)N[C@H](C)C(=O)N[C@@H](CCc2cncc(C#N)c2)C(=O)N[C@@H](Cc2ccc(-c3ccc(C(=O)O)cc3)cc2)C(=O)N[C@@H](Cc2c[nH]c3ccccc23)C(=O)N[C@@H](Cc2ccc(C(=O)O)cc2)C(=O)NCC(=O)N2C[C@H](N)C[C@H]2C(=O)N[C@@H]([C@@H](C)c2cccc3ccccc23)C(=O)N[C@@H](CC(=O)O)C(=O)N1C
On to B11, for which the “MRC5 IC50” value stood at 0.017 nM.

B12: SEQ ID NO: 35 (peptide)
peptide: cyclo([Bip(4'-COOH)]W[Phe(4-COOH)]G[Pro(trans-4-NH2)][Trp(4-Cl)(βS-Me)]D[dNMeA]G[Bip(4'-COOH)][1Nal]L[Aib]G)
SMILES: CC(C)C[C@@H]1NC(=O)[C@H](Cc2cccc3ccccc23)NC(=O)[C@H](Cc2ccc(-c3ccc(C(=O)O)cc3)cc2)NC(=O)CNC(=O)[C@@H](C)N(C)C(=O)[C@H](CC(=O)O)NC(=O)[C@H]([C@@H](C)c2c[nH]c3cccc(Cl)c23)NC(=O)[C@@H]2C[C@@H](N)CN2C(=O)CNC(=O)[C@H](Cc2ccc(C(=O)O)cc2)NC(=O)[C@H](Cc2c[nH]c3ccccc23)NC(=O)[C@H](Cc2ccc(-c3ccc(C(=O)O)cc3)cc2)NC(=O)CNC(=O)C(C)(C)NC1=O
B12: the “MRC5 IC50” value was determined as 0.16 nM.
